We go through 4 molecules from patent US20050043221A1 (BROWN UNIVERSITY, published 2005).

The chains are these.
B1: recombinant decorin core polypeptide (no side chains), vaccinia system (other, UniProt P07585 31-359, looked up, not shown: small tags and cut ends)
chain: DEASGIGPEVPDDRDFEPSLGPVCPFRCQCHLRVVQCSDLGLDKVPKDLPPDTTLLDLQNNKITEIKDGDFKNLKNLHALILVNNKISKVSPGAFTPLVKLERLYLSKNQLKELPEKMPKTLQELRAHENEITKVRKVTFNGLNQMIVIELGTNPLKSSGIENGAFQGMKKLSYIRIADTNITSIPQGLPPSLTELHLDGNKISRVDAASLKGLNNLAKLGLSFNSISAVDNGSLANTPHLRELHLDNNKLTRVPGGLAEHKYIQVVYLHNNNISVVGSSDFCPPGHNTKKASYSGVSLFSNPVQYWEIQPSTFRCVYVRSAIQLGNYK
B2: recombinant decorin proteoglycan (core and side chains), vaccinia system (other, UniProt P07585 31-359, looked up, not shown: small tags and cut ends)
chain: DEASGIGPEVPDDRDFEPSLGPVCPFRCQCHLRVVQCSDLGLDKVPKDLPPDTTLLDLQNNKITEIKDGDFKNLKNLHALILVNNKISKVSPGAFTPLVKLERLYLSKNQLKELPEKMPKTLQELRAHENEITKVRKVTFNGLNQMIVIELGTNPLKSSGIENGAFQGMKKLSYIRIADTNITSIPQGLPPSLTELHLDGNKISRVDAASLKGLNNLAKLGLSFNSISAVDNGSLANTPHLRELHLDNNKLTRVPGGLAEHKYIQVVYLHNNNISVVGSSDFCPPGHNTKKASYSGVSLFSNPVQYWEIQPSTFRCVYVRSAIQLGNYK
modifications: glycosaminoglycan side chain
notes: also called DEC-PG; DECPG

In assay [1] the target is T1, α-sarcoglycan, 35S-methionine-labelled, in vitro translated (human, UniProt Q16586 1-387, limits assumed).
T1 construct: also called alpha-sarcoglycan
T1 sequence (looked up): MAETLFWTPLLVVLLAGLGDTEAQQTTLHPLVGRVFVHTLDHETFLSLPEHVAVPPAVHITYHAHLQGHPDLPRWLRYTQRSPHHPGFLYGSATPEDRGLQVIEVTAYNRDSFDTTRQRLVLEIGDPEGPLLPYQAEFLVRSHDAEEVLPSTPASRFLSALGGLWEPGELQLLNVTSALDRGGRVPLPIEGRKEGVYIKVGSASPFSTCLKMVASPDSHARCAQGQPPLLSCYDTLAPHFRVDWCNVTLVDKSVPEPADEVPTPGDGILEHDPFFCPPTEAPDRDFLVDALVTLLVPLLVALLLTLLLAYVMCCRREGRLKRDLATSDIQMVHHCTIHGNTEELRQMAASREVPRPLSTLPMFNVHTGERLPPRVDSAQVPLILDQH
The experiment in a line: blot overlay with 35S in vitro translated sarcoglycan.

Assay [2] concerns the target T2, recombinant human biglycan core polypeptide (no side chains), His-tagged, vaccinia system (human, UniProt P21810 38-368).
T2 construct: GAG attachment sites present but not substituted; also called BGN; core biglycan; not shown: N-terminal cassette His6-[Glu-Ser]-factor Xa site-[Leu-Glu]
T2 sequence: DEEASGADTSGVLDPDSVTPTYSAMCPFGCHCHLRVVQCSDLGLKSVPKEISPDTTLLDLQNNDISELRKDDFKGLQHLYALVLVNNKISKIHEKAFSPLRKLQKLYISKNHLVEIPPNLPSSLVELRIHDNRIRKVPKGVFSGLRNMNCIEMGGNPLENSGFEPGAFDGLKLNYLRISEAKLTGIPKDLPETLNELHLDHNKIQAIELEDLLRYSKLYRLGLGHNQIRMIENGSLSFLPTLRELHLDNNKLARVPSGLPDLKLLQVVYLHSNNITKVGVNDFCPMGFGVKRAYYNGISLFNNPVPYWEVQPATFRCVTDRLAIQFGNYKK
Described as above.

Assay [3] concerns the target B2. The assay is described as above.
Assay [4] deals with B1. The assay is described as above.
Assay [5] deals with B1. Nature of the assay: blot overlay.
Assay [6] addresses T2, recombinant human biglycan core …. Nature of the assay: co-immunoprecipitation in solution with anti-biglycan or anti-poly-His, protein G beads.

Take B1: the binding result in assay [1] is recorded as “no binding”. Still for that read-out and setting: the value for B2 was “no binding”.

B3: γ-sarcoglycan, 35S-methionine-labelled, in vitro translated (other, human, UniProt Q13326 1-291, looked up)
chain: MVREQYTTATEGICIERPENQYVYKIGIYGWRKRCLYLFVLLLLIILVVNLALTIWILKVMWFSPAGMGHLCVTKDGLRLEGESEFLFPLYAKEIHSRVDSSLLLQSTQNVTVNARNSEGEVTGRLKVGPKMVEVQNQQFQINSNDGKPLFTVDEKEVVVGTDKLRVTGPEGALFEHSVETPLVRADPFQDLRLESPTRSLSMDAPRGVHIQAHAGKIEALSQMDILFHSSDGMLVLDAETVCLPKLVQGTWGPSGSSQSLYEICVCPDGKLYLSVAGVSTTCQEHNHICL
notes: also called gamma sarcoglycan
With B3, the results for the binding result in assay [2], in assay [3] and in assay [4] were “binds”, “no binding” and “no binding”, respectively.

B4: β-sarcoglycan, 35S-methionine-labelled, in vitro translated (other, human, UniProt Q16585 1-318, looked up)
chain: MAAAAAAAAEQQSSNGPVKKSMREKAVERRSVNKEHNSNFKAGYIPIDEDRLHKTGLRGRKGNLAICVIILLFILAVINLIITLVIWAVIRIGPNGCDSMEFHESGLLRFKQVSDMGVIHPLYKSTVGGRRNENLVITGNNQPIVFQQGTTKLSVENNKTSITSDIGMQFFDPRTQNILFSTDYETHEFHLPSGVKSLNVQKASTERITSNATSDLNIKVDGRAIVRGNEGVFIMGKTIEFHMGGNMELKAENSIILNGSVMVSTTRLPSSSSGDQLGSGDWVRYKLCMCADGTLFKVQVTSQNMGCQISDNPCGNTH
notes: also called beta-sarcoglycan
On to B4, for which the binding result in assay [5] and in assay [6] was “no binding” throughout.
